Test results: patent publication US8784821 (Amgen, dated 2014)

T1: recombinant soluble extracellular domain of the human CD3 epsilon chain with His6 tag, expressed alone (human)
T1 construct: also called recombinant CD3-epsilon antigen; rCD3-epsilon
T1 chain: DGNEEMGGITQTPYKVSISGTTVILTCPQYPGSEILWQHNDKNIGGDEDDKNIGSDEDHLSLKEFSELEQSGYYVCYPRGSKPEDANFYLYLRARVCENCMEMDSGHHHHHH

B1: human anti-human CD3 scFv 3-550 (FLAG-tagged) (scFv)
scFv: ELQLVESGPGLVKPSQTLSLTCAISGDSVSSNSAAWNWIRQSPSRGLEWLGRTYYRSKWYNDYAVSVKSRITINPDTSKNQFSLQLNSVTPEDTAVYYCARDRRRIAARQYYGMDVWGQGTTVTVSSGGGGSGGGGSGGGGSELVLTQSPGTLSLSPGERATLSCRASQSVSSNYLAWYQQKPGQAPRLLIYGASSRATGIPDRFSGSGSGTDFTLTISSLQPEDVATYYCQKYNSAPLTFGGGTKVEIKTGDYKDDDDK
notes: VH-(G4S1)3-VL scFv from huLIB-STE, tested as crude periplasmic preparation
B2: human anti-human CD3 scFv 3-190 (FLAG-tagged) (scFv)
scFv: ELQLVEWGAGLLKPSETLSLTCAVYGGSFSGYYWSWIRQPPGKGLEWIGEINHSGSTNYNPSLKSRVTISVDTSKNQFSLKLSSVTAADTAVYYCARGRGRFLGWLLGGSNWFDPWGQGTLVTVSSGGGGSGGGGSGGGGSELVMTQSPSSLSASVGDRVTITCRASQGISNYLNWYQQKPGKAPKLLIYDASNLETGVPSRFSGSGSGTDFTLTISSLQPEDFATYYCQQSYSTPYTFGQGTKVDIKTGDYKDDDDK
notes: as for B1
B3: human anti-human CD3 scFv 4-48 (FLAG-tagged) (scFv)
scFv: ELQLVESGPVLVKPTDTLTLTCTVSGFSLNNPRMGVSWIRQPPGKTLEWLAHIFPSDAKAHSASLKSRLTISKDTSKSQVVPTMTNMDPVDTATYYCARILGEYYPPAWFDPWGQGTLVTVSSGGGGSGGGGSGGGGSELVMTQSPDSLAVSLGERATINCKSSQSVLYSSNNKNYLAWYQQKPGQPPKLLIYWASTRESGVPDRFSGSGSGTDFTLTISSLQAEDVAVYYCQQYLKIPYTFGQGTKVEIKTGDYKDDDDK
notes: VH-(G4S1)3-VL scFv from huLIB-STE, tested as crude periplasmic preparation; also called clone 4-48
B4: human anti-human CD3 scFv 3-106 (FLAG-tagged) (scFv)
scFv: ELQLVESGGGVVQPGRSLRLSCAASGFTFSSYGMHWVRQAPGKGLEWVAVISYDGSNKYYADSVKGRFTISRDNSKNTLYLQMNSLRSEDTAVYYCARLSPYCTNGVCWDAFDIWGQGTMVTVSSGGGGSGGGGSGGGGSELQMTQSPSSLSASVGDRVSITCRASQTISNYLNWYQLKPGKAPKLLIYAASTLQSEVPTRFSGSGSGTDFTLTISGLHPEDFATYYCQQFNSYPRTFGQGTKVEIKTGDYKDDDDK
notes: VH-(G4S1)3-VL scFv from huLIB-ST, tested as crude periplasmic preparation
B5: human anti-human CD3 scFv 3-114 (FLAG-tagged) (scFv)
scFv: ELQLVESGGGLVKPGRSLRLSCTASGFTFGDYAMSWFRQAPGKGLEWVGFIRSKAYGGTTEYAASVKGRFTISRDDSKSIAYLQMNSLKTEDTAVYYCTPQLWLLQDAFDIWGQGTMVTVSSGGGGSGGGGSGGGGSELQMTQSPSSLSASVGDRVTITCRASQGISNYLAWYQQKPGKVPKLLIYAASTLQSGVPSRFSGSGSGTDFTLTISSLQPEDFATYYCQQSYSTPPTFGQGTKLEIKTGDYKDDDDK
notes: as for B4
B6: human anti-human CD3 scFv 3-148 (FLAG-tagged) (scFv)
scFv: ELQLVESGPGLVKPSGTLSLTCAVSGGSISSRNWWSWVRQPPGKGLEWIGDIYHSGSTNYNPSLKSRVTISVDKSKNQFSLKLSSVTAADTAVYYCASGYTSCRDAFDIWGQGTMVTVSSGGGGSGGGGSGGGGSELVMTQSPSSLSASVGDRVTITCRASQGIGNYLAWYQQKPGQPPKMLIYWASIRESGVPDRFSGSGSGTDFTLTISSLQAEDVAVYYCQQYYSNPQTFGQGTKVEIKTGDYKDDDDK
notes: as for B4
B7: human anti-human CD3 scFv 4-10 (FLAG-tagged) (scFv)
scFv: ELQLVESGGGLVQPGGSLRLSCAASGFTFSSYAMGWVRQAPGKGLEWVSAVSGSGGSTYYADSVKGRFTISRDNSKNTLYLQMNSLRAEDTAVYYCAKAKFLGHYYGMDVWGQGTTVTVSSGGGGSGGGGSGGGGSELQMTQSPSSLSASVGDRVTITCRASQSISSYLNWYQQKPGKAPKLLIYAASSLQSGVPSRFSGSGSGTEFTLTISSLQPEDFATYYCLQHNAYPYTFGQGTKVEIKTGDYKDDDDK
notes: VH-(G4S1)3-VL scFv from huLIB-ST, tested as crude periplasmic preparation; Flag-tag put at the C-terminus because it replaces the vector's His6-tag; also called construct 4-10
B8: human anti-human CD3 scFv 3-271 (FLAG-tagged) (scFv)
scFv: ELQLVEWGAGLLKPSETLSLTCAVYGGSFSGYYWSWIRQPPGKGLEWIGEINHSGSTNYNPSLKSRVTISVDTSKNQFSLKLSSVTAADTAVYYCARGPDRMGHGFDIWGQGTMVTVSSGGGGSGGGGSGGGGSELQMTQSPSSLSASVGDRVTITCRASQSISSYLNWYQQKSGKAPKLLIYAASSLQSGVPSRFSGSGSGTDFTLTISSLQPEDFATYYCQQSYSSPWTFGQGTKVEIKTGDYKDDDDK
notes: as for B1

Biological target: T2, human CD3 complex, native, on CD3-positive human T cells (human, UniProt P07766 23-207; P09693 23-182; P04234 22-171)
T2 construct: whole, on cells; Presented as part of the TCR/CD3 complex on Jurkat cells (flow cytometry) and on the CD4-positive T cell clone CB15 (cytotoxicity assays); also called CD3 on Jurkat cells; CD3+ Jurkat cells
Test: flow cytometry screening on Jurkat cells, periplasmic preparation
Experimental: Periplasmic preparations of soluble scFv protein fragments were added to CD3-positive Jurkat cells. Detection was performed by a 1.0 monoclonal anti-Flag antibody followed by a PE-labeled polyclonal anti-mouse antibody. ScFvs binding to cells was measured by an increase in fluorescence intensity as compared to cells that were incubated with PBS alone: Fluorescence intensity is blotted on the X-axis, the number of events is blotted on the Y-axis. The negative control is shown in black, the respective scFvs are shown in gray. Shifting to the right indicates positive binding to the cells. Periplasmic preparation from cells producing the anti-CD3 scFv L2K was included, as well as the purified anti-CD3 antibodies UCHT1, SP34 and OKT3 (concentration of each 5 µg/ml).
Target sequence in this assay (P09693 23-182, chain 2 of 2): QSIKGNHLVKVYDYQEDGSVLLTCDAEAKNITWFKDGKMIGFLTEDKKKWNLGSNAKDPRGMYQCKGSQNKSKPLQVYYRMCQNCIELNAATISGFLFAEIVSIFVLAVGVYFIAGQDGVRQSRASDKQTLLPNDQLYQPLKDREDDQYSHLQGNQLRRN
Target sequence in this assay (P04234 22-171, chain 3 of 2): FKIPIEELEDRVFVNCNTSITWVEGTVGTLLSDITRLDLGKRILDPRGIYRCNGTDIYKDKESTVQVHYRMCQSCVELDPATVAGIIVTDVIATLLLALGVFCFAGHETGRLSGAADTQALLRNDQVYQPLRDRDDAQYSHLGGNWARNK

binding result | Binder
binds | B1
binds | B2
binds | B3

Biological target: T2, human CD3 complex, native, on …
Test: conclusion from ELISA (FIGS. 14 and 15) and flow cytometry on Jurkat cells
Target sequence in this assay (P07766 23-207, chain 1 of 3): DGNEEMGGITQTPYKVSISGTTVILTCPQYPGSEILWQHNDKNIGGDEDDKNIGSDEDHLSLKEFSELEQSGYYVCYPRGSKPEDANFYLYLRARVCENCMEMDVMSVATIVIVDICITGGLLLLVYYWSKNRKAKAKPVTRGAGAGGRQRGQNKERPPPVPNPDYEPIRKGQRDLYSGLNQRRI
Target sequence in this assay (P09693 23-182, chain 2 of 3): as the sequence (P09693 23-182, chain 2 of 2) above
Target sequence in this assay (P04234 22-171, chain 3 of 3): as the sequence (P04234 22-171, chain 3 of 2) above

binding result | Binder
binds | B4
binds | B5
binds | B6
binds | B7

Biological target: T3, BSA (blocking agent) (UniProt P02769 25-607)
T3 construct: Specificity control of the ELISA
T3 sequence (P02769 25-607 limits assumed): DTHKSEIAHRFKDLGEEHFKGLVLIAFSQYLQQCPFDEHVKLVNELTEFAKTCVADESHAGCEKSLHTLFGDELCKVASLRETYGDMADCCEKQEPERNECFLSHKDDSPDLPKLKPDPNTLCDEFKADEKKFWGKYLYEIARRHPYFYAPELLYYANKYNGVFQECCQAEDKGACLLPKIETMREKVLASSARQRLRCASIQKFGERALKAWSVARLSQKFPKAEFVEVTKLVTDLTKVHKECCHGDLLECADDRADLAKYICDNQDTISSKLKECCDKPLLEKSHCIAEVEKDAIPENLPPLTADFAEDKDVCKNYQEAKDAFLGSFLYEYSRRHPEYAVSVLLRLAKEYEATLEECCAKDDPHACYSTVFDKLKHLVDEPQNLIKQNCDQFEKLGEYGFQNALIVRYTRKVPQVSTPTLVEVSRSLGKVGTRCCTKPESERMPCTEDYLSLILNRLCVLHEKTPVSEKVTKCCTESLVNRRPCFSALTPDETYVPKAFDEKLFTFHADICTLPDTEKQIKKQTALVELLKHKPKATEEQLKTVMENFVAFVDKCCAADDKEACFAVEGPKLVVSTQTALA
Test: ELISA on uncoated plates blocked with PBS 3% BSA, periplasmic preparation
Experimental: (§1) FIG. 15: ELISA-analysis of periplasmic preparations containing Flag-tagged scFv protein fragments from selected clones. […] Detection was performed by a monoclonal anti-Flag antibody followed by a peroxidase-conjugated polyclonal goat anti-mouse antibody. The ELISA was developed by an ABTS-substrate solution as described in example 3. The OD-values (Y-axis) were measured at 405 nm by an ELISA-reader. Clone numbers are presented on the X-axis, where the first number of the clone number indicates the round of panning in which the respective clone was obtained, while the second number indicates the respective clone of this round. Periplasmic preparation from cells producing the anti-CD3 scFv L2K was included, as well as the purified anti-CD3 antibodies UCHT1, SP34 and OKT3 (concentration of each 1 µg/ml).
(§2) ELISA experiments were carried out by coating the recombinant CD3 epsilon on wells of 96 well plastic plates (Nunc, maxisorb) typically at 4° C. over night. […] After removal of the blocking solution, PPPs and control solutions were added to the wells and incubated for typically one hour at room temperature. The wells were then washed three times with PBS/0.05% Tween 20. Detection of scFvs and control antibodies bound to immobilized antigen was Carried out using a monoclonal murine anti-His6 or anti FLAG-tag antibody (Qiagen anti-PentaHis and M2 anti Flag Sigma, typically each at a final concentration of 1 µg/ml PBS) detected with a peroxidase-labeled polyclonal goat anti- (mouse Fab-fragment) antibody (Dianova, 1 µg/ml PBS). The signal was developed by adding ABTS substrate solution and measured at a wavelength of 405 nm. Unspecific binding of the test-samples to the blocking agent was examined by carrying out the identical assays with the identical reagents and identical timing on ELISA plates which were not coated but blocked with BSA, only.

binding result | Binder
no binding | B4
no binding | B5
no binding | B6
no binding | B8
no binding | B1
no binding | B2
no binding | B7
no binding | B3

Biological target: T1, recombinant soluble extracellular …
Test: ELISA on coated recombinant CD3-epsilon, periplasmic preparation, anti-Flag detection
Experimental: as §1, with “14: CD3-specific” for “15:”, “Example” for “example”
as §2

binding result | Binder
binds | B4
binds | B5
binds | B6
binds | B1
binds | B2
binds | B7
binds | B3
